Experimental findings from patent publication US20250163164A1 (LANOVA MEDICINES DEVELOPMENT, published 2025) are described below.

To fix the notation:
T1: human interleukin 13 receptor subunit alpha 2 (IL-13RA2) (human, UniProt Q14627 27-380)
T1 construct: whole, on cells; also called IL-13Rα2; CD213A2
T1 sequence (looked up): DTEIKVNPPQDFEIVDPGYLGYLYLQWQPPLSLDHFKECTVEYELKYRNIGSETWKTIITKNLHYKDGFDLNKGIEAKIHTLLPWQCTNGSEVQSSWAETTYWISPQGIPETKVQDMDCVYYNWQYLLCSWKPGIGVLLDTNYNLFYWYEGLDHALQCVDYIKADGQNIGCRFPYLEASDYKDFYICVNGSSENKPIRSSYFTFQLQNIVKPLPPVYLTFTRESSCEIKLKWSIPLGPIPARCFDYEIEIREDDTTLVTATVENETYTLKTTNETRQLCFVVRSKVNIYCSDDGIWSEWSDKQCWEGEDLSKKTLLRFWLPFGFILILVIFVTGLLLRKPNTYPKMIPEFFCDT

B1: 61H8C1 H2L2 hIgG1 (antibody, V domains shown)
VH: QVQLVQSGAEVAKPGASVKVSCKASGYTFTSYWTQWIRQAPGQGLEGMGAIYPGDDDTSYNQKFKGRVTMTADTSTSTVYMELSSLRSEDTAVYYCARGATLLRPFPYWGQGTLVTVSS
VL: DIQMTQSPSSLSTSVGDRVTITCKASQDVSTAVAWYQQKPGKSPKLLIYSASYRYTGVPSRFSGSGSGTDFTLTISSLQPEDFATYSCQQHYSIPPTFGQGTKLEIK
notes: humanized, hIgG1
B2: 61H8C1 H4L4 hIgG1 (antibody, V domains shown)
VH: QVQLVQSGAEVAKPGASVKLSCKASGYTFTSYWTQWIKQAPGQGLEGIGAIYPGDDDTSYNQKFKGKATLTADKSTSTAYMQLSSLRSEDTAVYYCARGATLLRPFPYWGQGTLVTVSS
VL: DIVMTQSPSSLSTSVGDRVTITCKASQDVSTAVAWYQQKPGKSPKLLIYSASYRYTGVPDRFTGSGSGTDFTFTISSVQPEDFATYSCQQHYSIPPTFGGGTKLEIK
notes: humanized, hIgG1
B3: 61H8C1 H3L4 hIgG1 (antibody, V domains shown)
VH: QVQLVQSGAEVAKPGASVKVSCKASGYTFTSYWTQWIRQAPGQGLEGIGAIYPGDDDTSYNQKFKGRATLTADKSTSTVYMQLSSLRSEDTAVYYCARGATLLRPFPYWGQGTLVTVSS
VL: DIVMTQSPSSLSTSVGDRVTITCKASQDVSTAVAWYQQKPGKSPKLLIYSASYRYTGVPDRFTGSGSGTDFTFTISSVQPEDFATYSCQQHYSIPPTFGGGTKLEIK
notes: humanized, hIgG1
B4: 61H8C1 H2L4 hIgG1 (antibody, V domains shown)
VH: QVQLVQSGAEVAKPGASVKVSCKASGYTFTSYWTQWIRQAPGQGLEGMGAIYPGDDDTSYNQKFKGRVTMTADTSTSTVYMELSSLRSEDTAVYYCARGATLLRPFPYWGQGTLVTVSS
VL: DIVMTQSPSSLSTSVGDRVTITCKASQDVSTAVAWYQQKPGKSPKLLIYSASYRYTGVPDRFTGSGSGTDFTFTISSVQPEDFATYSCQQHYSIPPTFGGGTKLEIK
notes: humanized, hIgG1
B5: 61H8C1 H4L2 hIgG1 (antibody, V domains shown)
VH: QVQLVQSGAEVAKPGASVKLSCKASGYTFTSYWTQWIKQAPGQGLEGIGAIYPGDDDTSYNQKFKGKATLTADKSTSTAYMQLSSLRSEDTAVYYCARGATLLRPFPYWGQGTLVTVSS
VL: DIQMTQSPSSLSTSVGDRVTITCKASQDVSTAVAWYQQKPGKSPKLLIYSASYRYTGVPSRFSGSGSGTDFTLTISSLQPEDFATYSCQQHYSIPPTFGQGTKLEIK
notes: humanized, hIgG1
B6: 61H8C1 H3L1 hIgG1 (antibody, V domains shown)
VH: QVQLVQSGAEVAKPGASVKVSCKASGYTFTSYWTQWIRQAPGQGLEGIGAIYPGDDDTSYNQKFKGRATLTADKSTSTVYMQLSSLRSEDTAVYYCARGATLLRPFPYWGQGTLVTVSS
VL: DIQMTQSPSSLSASVGDRVTITCKASQDVSTAVAWYQQKPGKAPKLLIYSASYRYTGVPSRFSGSGSGTDFTLTISSLQPEDFATYYCQQHYSIPPTFGQGTKLEIK
notes: humanized, hIgG1
B7: 61H8C1 H1L3 hIgG1 (antibody, V domains shown)
VH: QVQLVQSGAEVKKPGASVKVSCKASGYTFTSYWTQWVRQAPGQGLEWMGAIYPGDDDTSYNQKFKGRVTMTRDTSTSTVYMELSSLRSEDTAVYYCARGATLLRPFPYWGQGTLVTVSS
VL: DIQMTQSPSSLSTSVGDRVTITCKASQDVSTAVAWYQQKPGKSPKLLIYSASYRYTGVPDRFSGSGSGTDFTFTISSLQPEDFATYSCQQHYSIPPTFGGGTKLEIK
notes: humanized, hIgG1
B8: 61H8C1 H1L2 hIgG1 (antibody, V domains shown)
VH: QVQLVQSGAEVKKPGASVKVSCKASGYTFTSYWTQWVRQAPGQGLEWMGAIYPGDDDTSYNQKFKGRVTMTRDTSTSTVYMELSSLRSEDTAVYYCARGATLLRPFPYWGQGTLVTVSS
VL: DIQMTQSPSSLSTSVGDRVTITCKASQDVSTAVAWYQQKPGKSPKLLIYSASYRYTGVPSRFSGSGSGTDFTLTISSLQPEDFATYSCQQHYSIPPTFGQGTKLEIK
notes: humanized, hIgG1
B9: 61H8C1 H2L1 hIgG1 (antibody, V domains shown)
VH: QVQLVQSGAEVAKPGASVKVSCKASGYTFTSYWTQWIRQAPGQGLEGMGAIYPGDDDTSYNQKFKGRVTMTADTSTSTVYMELSSLRSEDTAVYYCARGATLLRPFPYWGQGTLVTVSS
VL: DIQMTQSPSSLSASVGDRVTITCKASQDVSTAVAWYQQKPGKAPKLLIYSASYRYTGVPSRFSGSGSGTDFTLTISSLQPEDFATYYCQQHYSIPPTFGQGTKLEIK
notes: humanized, hIgG1
B10: 61H8C1 H3L2 hIgG1 (antibody, V domains shown)
VH: QVQLVQSGAEVAKPGASVKVSCKASGYTFTSYWTQWIRQAPGQGLEGIGAIYPGDDDTSYNQKFKGRATLTADKSTSTVYMQLSSLRSEDTAVYYCARGATLLRPFPYWGQGTLVTVSS
VL: DIQMTQSPSSLSTSVGDRVTITCKASQDVSTAVAWYQQKPGKSPKLLIYSASYRYTGVPSRFSGSGSGTDFTLTISSLQPEDFATYSCQQHYSIPPTFGQGTKLEIK
notes: humanized, hIgG1
B11: 61H8C1 H1L4 hIgG1 (antibody, V domains shown)
VH: QVQLVQSGAEVKKPGASVKVSCKASGYTFTSYWTQWVRQAPGQGLEWMGAIYPGDDDTSYNQKFKGRVTMTRDTSTSTVYMELSSLRSEDTAVYYCARGATLLRPFPYWGQGTLVTVSS
VL: DIVMTQSPSSLSTSVGDRVTITCKASQDVSTAVAWYQQKPGKSPKLLIYSASYRYTGVPDRFTGSGSGTDFTFTISSVQPEDFATYSCQQHYSIPPTFGGGTKLEIK
notes: humanized, hIgG1
B12: 61H8C1 H1L1 hIgG1 (antibody, V domains shown)
VH: QVQLVQSGAEVKKPGASVKVSCKASGYTFTSYWTQWVRQAPGQGLEWMGAIYPGDDDTSYNQKFKGRVTMTRDTSTSTVYMELSSLRSEDTAVYYCARGATLLRPFPYWGQGTLVTVSS
VL: DIQMTQSPSSLSASVGDRVTITCKASQDVSTAVAWYQQKPGKAPKLLIYSASYRYTGVPSRFSGSGSGTDFTLTISSLQPEDFATYYCQQHYSIPPTFGQGTKLEIK
notes: humanized, hIgG1
B13: 61H8C1 H2L3 hIgG1 (antibody, V domains shown)
VH: QVQLVQSGAEVAKPGASVKVSCKASGYTFTSYWTQWIRQAPGQGLEGMGAIYPGDDDTSYNQKFKGRVTMTADTSTSTVYMELSSLRSEDTAVYYCARGATLLRPFPYWGQGTLVTVSS
VL: DIQMTQSPSSLSTSVGDRVTITCKASQDVSTAVAWYQQKPGKSPKLLIYSASYRYTGVPDRFSGSGSGTDFTFTISSLQPEDFATYSCQQHYSIPPTFGGGTKLEIK
notes: humanized, hIgG1
B14: 61H8C1 H4L1 hIgG1 (antibody, V domains shown)
VH: QVQLVQSGAEVAKPGASVKLSCKASGYTFTSYWTQWIKQAPGQGLEGIGAIYPGDDDTSYNQKFKGKATLTADKSTSTAYMQLSSLRSEDTAVYYCARGATLLRPFPYWGQGTLVTVSS
VL: DIQMTQSPSSLSASVGDRVTITCKASQDVSTAVAWYQQKPGKAPKLLIYSASYRYTGVPSRFSGSGSGTDFTLTISSLQPEDFATYYCQQHYSIPPTFGQGTKLEIK
notes: humanized, hIgG1
B15: 61H8C1 H4L3 hIgG1 (antibody, V domains shown)
VH: QVQLVQSGAEVAKPGASVKLSCKASGYTFTSYWTQWIKQAPGQGLEGIGAIYPGDDDTSYNQKFKGKATLTADKSTSTAYMQLSSLRSEDTAVYYCARGATLLRPFPYWGQGTLVTVSS
VL: DIQMTQSPSSLSTSVGDRVTITCKASQDVSTAVAWYQQKPGKSPKLLIYSASYRYTGVPDRFSGSGSGTDFTFTISSLQPEDFATYSCQQHYSIPPTFGGGTKLEIK
notes: humanized, hIgG1
B16: 61H8C1 H3L3 hIgG1 (antibody, V domains shown)
VH: QVQLVQSGAEVAKPGASVKVSCKASGYTFTSYWTQWIRQAPGQGLEGIGAIYPGDDDTSYNQKFKGRATLTADKSTSTVYMQLSSLRSEDTAVYYCARGATLLRPFPYWGQGTLVTVSS
VL: DIQMTQSPSSLSTSVGDRVTITCKASQDVSTAVAWYQQKPGKSPKLLIYSASYRYTGVPDRFSGSGSGTDFTFTISSLQPEDFATYSCQQHYSIPPTFGGGTKLEIK
notes: humanized, hIgG1
B17: 57F8H3F1 H2L2 hIgG1 (antibody, V domains shown)
VH: QVQLVQSGAEVVKPGASVKVSCKASGYTFTNYWMNWVRQAPGQGLEWIGRIDAYETETHYNQKFRDRVTMTVDTSTSTVYMELSSLRSEDTAVYYCARGYGHYYGVDYWGQGTLVTVSS
VL: DIQMTQSPSSLSASVGDRVTITCRASENVGNFGISFVNWFQQKPGKAPKLLIYAASNLGSGDPSRFSGSGSGTDFTLTISSLQPEDFATYFCQQSKGVPWTFGQGTKVEIK
notes: humanized, hIgG1
B18: 57F8H3F1 H1L1 hIgG1 (antibody, V domains shown)
VH: QVQLVQSGAEVKKPGASVKVSCKASGYTFTNYWMNWVRQAPGQGLEWMGRIDAYETETHYNQKFRDRVTMTRDTSTSTVYMELSSLRSEDTAVYYCARGYGHYYGVDYWGQGTLVTVSS
VL: DIQMTQSPSSLSASVGDRVTITCRASENVGNFGISFVNWYQQKPGKAPKLLIYAASNLGSGVPSRFSGSGSGTDFTLTISSLQPEDFATYYCQQSKGVPWTFGQGTKVEIK
notes: humanized, hIgG1

As a reminder, the EC50 is the midpoint of the concentration-response curve. A low value points to higher potency in that assay.

This test addresses T1, human interleukin 13 receptor subunit …. The experiment in a line: FACS on A375 cells. On the procedure:
A375 cells that endogenously expressed IL-13RA2, were harvested from flasks. 100 μl of 1×10⁶ cells/ml of cells were incubated with primary humanized antibodies in 4-fold serial dilutions starting from 200 nM to 0.003 nM for 30 minutes on ice. After being washed with 200 μl of FACS buffer twice, cells were incubated with secondary antibody for 30 minutes on ice. Cells were washed with 200 μl of FACS buffer twice and analyzed by FACS.
For B1, the EC50 stood at 0.15 nM and the “Top (MFI)” value was determined as 22400 MFI.
On to B2, for which the EC50 was 0.19 nM and the “Top (MFI)” value stood at 21600 MFI.
On the same counts, the results for B3 are 0.2 nM and 22000 MFI.
Turning to B4, it took 0.18 nM to reach a half-maximal effect (EC50) and the “Top (MFI)” value worked out at 21900 MFI.
On the same counts, the results for B5 are 0.14 nM and 21100 MFI.
The matching figures for B6: 0.15 nM and 20600 MFI.
On the same counts, the results for B7 are 0.2 nM and 20000 MFI.
Consider B8, for which it took 0.15 nM to reach a half-maximal effect (EC50) and the “Top (MFI)” value is 19600 MFI.
In the case of B9, a half-maximal response (EC50) required 0.16 nM and the “Top (MFI)” value was found to be 22400 MFI.
Consider B10, for which the 50% effective concentration (EC50) was 0.17 nM and the “Top (MFI)” value was 22300 MFI.
The matching figures for B11: 0.17 nM and 19800 MFI.
The matching figures for B12: 0.14 nM and 20300 MFI.
The matching figures for B13: 0.19 nM and 22100 MFI.
Turning to B14, the response was half-maximal at 0.17 nM (EC50) and the “Top (MFI)” value was 22200 MFI.
In the case of B15, the EC50 worked out at 0.18 nM and the “Top (MFI)” value worked out at 20800 MFI.
The matching figures for B16: 0.15 nM and 20100 MFI.
As to B17, a half-maximal response (EC50) required 0.89 nM and the “Top (MFI)” value worked out at 7090 MFI.
Consider B18, for which the response was half-maximal at 0.63 nM (EC50) and the “Top (MFI)” value is 7020 MFI.
